Target: OGG1 (ENZ-253, ProSpec) (UniProt O15527 1-345)
Test: EMSA
Conditions: protein: commercial, label: Cy5

Sequence of OGG1 (ENZ-253, ProSpec) (O15527 whole entry): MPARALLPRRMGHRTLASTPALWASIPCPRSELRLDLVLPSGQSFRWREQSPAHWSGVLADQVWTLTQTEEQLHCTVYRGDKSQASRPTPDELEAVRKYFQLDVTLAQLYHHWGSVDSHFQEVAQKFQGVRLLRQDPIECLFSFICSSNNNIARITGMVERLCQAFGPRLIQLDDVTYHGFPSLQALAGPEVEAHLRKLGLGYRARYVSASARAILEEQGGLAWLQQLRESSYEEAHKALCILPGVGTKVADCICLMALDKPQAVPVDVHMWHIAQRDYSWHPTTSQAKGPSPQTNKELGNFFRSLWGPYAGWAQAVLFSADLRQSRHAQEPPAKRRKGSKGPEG

Binder | binding result (predicted secondary structure) | binding result (annealed duplex)
GGGGCAAAUGCAAACAUGUCCAAAAACAAGGACCAACGCA (structured_RNA, single 8-oxoguanine at the end of GGGG) [8oxo-rG, undenatured] | binds | 
8oxo-rG:rC (dsRNA, single 8-oxoguanine at the end of GGGG) RNA 1: GGGGCAAAUGCAAACAUGUCCAAAAACAAGGACCAACGCA RNA 2: UGCGUUGGUCCUUGUUUUUGGACAUGUUUGCAUUUGCCCC |  | binds

Reference: article PMC11515973, “8-Oxoguanine DNA Glycosylase1 conceals oxidized guanine in nucleoprotein-associated RNA of respiratory syncytial virus”
